Columns and labels:
[1] = target: σ^70 lacking region 1 (UniProt P00579); experiment: trypsin protection of the β flap-tip by σ70 lacking region 1; wild-type RNAP without σ: 9.2 ± 0.1
[2] = target: σ^70 lacking region 4 (UniProt P00579); experiment: trypsin protection of the β flap-tip by σ70 lacking region 4; wild-type RNAP without σ: 9.2 ± 0.1
[3] = target: σ^70 lacking region 1 and region 4 (UniProt P00579); experiment: trypsin protection of the β flap-tip by σ70 lacking regions 1 and 4; wild-type RNAP without σ: 9.2 ± 0.1
[4] = target: RNA polymerase beta F906A beta F906A (Escherichia coli) (UniProt P0A7Z4+P0A8V2+P0A8T7+P0A800); conditions: -sigma70; SD 0.14
[5] = target: RNA polymerase beta I905N beta I905N (Escherichia coli) (UniProt P0A7Z4+P0A8V2+P0A8T7+P0A800); conditions: -sigma70; SD 0.04
[6] = target: RNA polymerase beta L901Q beta L901Q (Escherichia coli) (UniProt P0A7Z4+P0A8V2+P0A8T7+P0A800); conditions: -sigma70; SD 0.05
[7] = target: RNA polymerase beta L901R beta L901R (Escherichia coli) (UniProt P0A7Z4+P0A8V2+P0A8T7+P0A800); conditions: -sigma70; SD 0.05
[8] = target: RNA polymerase beta L902P beta L902P (Escherichia coli) (UniProt P0A7Z4+P0A8V2+P0A8T7+P0A800); conditions: -sigma70; SD 0.05
[9] = target: RNA polymerase beta delta(900-909) beta deletion 900-909 (Escherichia coli) (UniProt P0A7Z4+P0A8V2+P0A8T7+P0A800); conditions: -sigma70; SD 0.02
[10] = target: RNA polymerase core, wild-type (alpha2 beta beta' omega) (Escherichia coli) (UniProt P0A7Z4+P0A8V2+P0A8T7+P0A800); conditions: [3H]UMP incorporation, -sigma70; SD 0.05
[11] = target: RNA polymerase sigma70 holoenzyme, beta F906A beta F906A (Escherichia coli) (UniProt P0A7Z4+P0A8V2+P0A8T7+P0A800+P00579); conditions: +sigma70; SD 0.15
[12] = target: RNA polymerase sigma70 holoenzyme, beta I905N beta I905N (Escherichia coli) (UniProt P0A7Z4+P0A8V2+P0A8T7+P0A800+P00579); conditions: +sigma70; SD 0.02
[13] = target: RNA polymerase sigma70 holoenzyme, beta L901Q beta L901Q (Escherichia coli) (UniProt P0A7Z4+P0A8V2+P0A8T7+P0A800+P00579); conditions: +sigma70; SD 0.07
[14] = target: RNA polymerase sigma70 holoenzyme, beta L901R beta L901R (Escherichia coli) (UniProt P0A7Z4+P0A8V2+P0A8T7+P0A800+P00579); conditions: +sigma70; SD 0.07
[15] = target: RNA polymerase sigma70 holoenzyme, beta L902P beta L902P (Escherichia coli) (UniProt P0A7Z4+P0A8V2+P0A8T7+P0A800+P00579); conditions: +sigma70; SD 0.09
[16] = target: RNA polymerase sigma70 holoenzyme, beta delta(900-909) beta deletion 900-909 (Escherichia coli) (UniProt P0A7Z4+P0A8V2+P0A8T7+P0A800+P00579); conditions: +sigma70; SD 0.05
[17] = target: RNA polymerase sigma70 holoenzyme, wild-type (Escherichia coli) (UniProt P0A7Z4+P0A8V2+P0A8T7+P0A800+P00579); conditions: +sigma70; SD 0.1
[18] = target: RNA polymerase beta F906A (Escherichia coli, UniProt P0A7Z4;P0A8V2;P0A8T7;P0A800 P0A7Z4:1-329,P0A8V2:1-1342,P0A8T7:1-1407,P0A800:2-91, beta F906A); experiment: 4-thioU crosslink retained while 5-iodoU crosslink lost; hairpin-flap interaction not altered; conditions: tags: N-terminal His6 on beta, beta' intein-CBD removed by DTT, chain copies: 2,1,1,1, label: 32P
[19] = target: RNA polymerase beta K909C (Escherichia coli, UniProt P0A7Z4;P0A8V2;P0A8T7;P0A800 P0A7Z4:1-329,P0A8V2:1-1342,P0A8T7:1-1407,P0A800:2-91, beta K909C); experiment: UV crosslinking in paused TEC; crosslink maps between 903 and 909; conditions: tags: N-terminal His6 on beta; chain copies: 2,1,1,1; label: 32P; hairpin
Protocol: (§1) First, paused TECs containing either wild-type or βK909C mutant RNAPs and a wild-type pause hairpin loop derivatized with 5-iodoU and [α-³²P]CMP were prepared (FIG. 1A). The 5-iodoU crosslink was mapped by cleaving the crosslinked β subunit either to completion with trypsin or partially with 2-nitro-5-thiobenzoic-acid (NTCB), and by separating the cleavage products on SDS polyacrylamide gels (8-16% gradient; FIG. 6A). Trypsin cleavage was performed prior to disruption of the TEC, which results in cleavage within β only at R903 and K909 (Boruhkov et al., 1991). […] NTCB cleaves at Cys residues, which are present at seven positions in wild-type β and eight in βK909C.

[20] = target: T1, RNA polymerase core, wild-type (alpha2 beta beta' omega) (Escherichia coli, UniProt P0A7Z4;P0A8V2;P0A8T7;P0A800 P0A7Z4:1-329,P0A8V2:1-1342,P0A8T7:1-1407,P0A800:2-91); experiment: UV crosslinking (5-iodoU) in paused TEC; mapped to beta 904-908; conditions: tags: N-terminal His6 on beta; beta' C-terminal intein-CBD removed by DTT; chain copies: 2,1,1,1; label: 32P; hairpin
Protocol: as §1

[21] = target: T1, RNA polymerase core, wild-type (alpha2 …); experiment: 5-iodoU UV crosslinking in paused TEC; conditions: tags: N-terminal His6 on beta; beta' C-terminal intein-CBD removed by DTT; chain copies: 2,1,1,1; label: 32P; hairpin

For “wild-type Escherichia coli RNA polymerase (core enzyme, α, β, β′ subunits)”, the β cleavage rate + σ^70 [1] was 0.0062 s⁻¹, the β cleavage rate + σ^70 [2] was 0.011 s⁻¹ and the β cleavage rate + σ^70 [3] was 0.011 s⁻¹.

For poly(dA dT), the binding signal (relative to wild-type core) [4] was 1, the binding signal (relative to wild-type core) [5] was 1 and the binding signal (relative to wild-type core) [6] was 1.2. The binding signal (relative to wild-type core) [7] was 1.2, the binding signal (relative to wild-type core) [8] was 1.2 and the binding signal (relative to wild-type core) [9] was 0.95. The binding signal (relative to wild-type core) [10] was 1, the binding signal (relative to wild-type core) [11] was 2.1 and the binding signal (relative to wild-type core) [12] was 1.3. For the same molecule, the binding signal (relative to wild-type core) [13] was 1.4, the binding signal (relative to wild-type core) [14] was 1.5 and the binding signal (relative to wild-type core) [15] was 1.5. For the same molecule, the binding signal (relative to wild-type core) [16] was 0.9 and the binding signal (relative to wild-type core) [17] was 2.

CCUGACUAGUCUUUCAGG (ssRNA, 5-iodoU or 4-thioU in hairpin loop) [his pause RNA hairpin, wild-type]: binds [18]; binds [19]; binds [20].

CCUGCUUCGGCAGGCGAUGUGUGCUG (ssRNA, 5-iodoU in hairpin loop) [his pause RNA, tetraloop hairpin]: binds [21].

Reference: US20080193921, “Methods to identify agents that bind the flap-tip helix of RNA polymerase” (Wisconsin Alumni Research Foundation, published 2008)
